In ChEMBL document CHEMBL1127885, “Benzylpenicillin methyl phosphate. A penicillin prodrug that inactivates RTEM -lactamase” (Bioorg Med Chem Lett, 1994):

Substrate: COP(=O)(O)OC(=O)[C@@H]1N2C(=O)[C@@H](NC(=O)Cc3ccccc3)[C@H]2SC1(C)C
Experiment: Km against beta-lactamase in Escherichia coli

B1: Beta-lactamase TEM (Escherichia coli), P62593 (protein)
chain: MSIQHFRVALIPFFAAFCLPVFAHPETLVKVKDAEDQLGARVGYIELDLNSGKILESFRPEERFPMMSTFKVLLCGAVLSRVDAGQEQLGRRIHYSQNDLVEYSPVTEKHLTDGMTVRELCSAAITMSDNTAANLLLTTIGGPKELTAFLHNMGDHVTRLDRWEPELNEAIPNDERDTTMPAAMATTLRKLLTGELLTLASRQQLIDWMEADKVAGPLLRSALPAGWFIADKSGAGERGSRGIIAALGPDGKPSRIVVIYTTGSQATMDERNRQIAEIGASLIKHW
B1 was tested, and the Km was > 50 mM.
